Common to all, as to settings: remark: other sources report otherwise
Assay [1] deals with recombinant homotrimeric HA, A/Netherlands/219/03 H7N7 (Influenza A virus A/Netherlands/219/03 (H7N7)). As to the kind of experiment: trimeric HA microarray, transfection set 2.
For assay [2], the target named is T1, recombinant homotrimeric HA, A/Japan/305/57 H2N2 (Influenza A virus A/Japan/305/57 (H2N2)). As to the kind of experiment: trimeric HA microarray, transfection set 2.
Assay [3] has as its target T2, recombinant homotrimeric HA, A/Hong Kong/1073/99 H9N2 (Influenza A virus A/Hong Kong/1073/99 (H9N2)). In words: trimeric HA microarray, transfection set 2.
The target of assay [4] is T3, recombinant homotrimeric HA, A/South Carolina/1/18 H1N1 (Influenza A virus A/South Carolina/1/18 (H1N1)). In words: trimeric HA microarray, transfection set 2.
Assay [5] has as its target T4, recombinant homotrimeric HA, A/Wisconsin/67/05 H3N2 (Influenza A virus A/Wisconsin/67/05 (H3N2)). As to the kind of experiment: trimeric HA microarray, transfection set 2.
Assay [6] addresses T5, recombinant homotrimeric HA, A/northern shoveler/California/HKWF115/07 (Influenza A virus A/northern shoveler/California/HKWF115/2007 (H6N1)). As to the kind of experiment: trimeric HA microarray, transfection set 2.
The target in assay [7] is T6, recombinant homotrimeric HA, A/chicken/Vietnam/NCVD-016/08 H5N1 (Influenza A virus A/chicken/Vietnam/NCVD-016/08 (H5N1)). In words: trimeric HA microarray, transfection set 2.
For assay [8], the target named is recombinant homotrimeric HA, A/duck/Yangzhou/02/05 H8N4 (Influenza A virus A/duck/Yangzhou/02/2005 (H8N4)). As to the kind of experiment: trimeric HA microarray, transfection set 2.
Assay [9] addresses T7, recombinant homotrimeric HA, A/Solomon Islands/3/06 H1N1 (Influenza A virus A/Solomon Islands/3/06 (H1N1)). In words: trimeric HA microarray, transfection set 2.
Assay [10] addresses T8, recombinant homotrimeric HA, A/Egypt/3300-NAMRU3/08 H5N1 (Influenza A virus A/Egypt/3300-NAMRU3/08 (H5N1)). As to the kind of experiment: trimeric HA microarray, transfection set 2.
Assay [11] has as its target T9, recombinant homotrimeric HA, A/California/4/09 H1N1 (Influenza A virus A/California/4/09 (H1N1)). As to the kind of experiment: trimeric HA microarray, transfection set 2.
The target of assay [12] is T10, recombinant homotrimeric HA, A/Indonesia/5/05 H5N1 (Influenza A virus A/Indonesia/5/05 (H5N1)). In words: trimeric HA microarray, transfection set 2.
For assay [13], the target named is T11, recombinant homotrimeric HA, A/Hong Kong/2108/03 H9N2 (Influenza A virus A/Hong Kong/2108/03 (H9N2)). In words: trimeric HA microarray, transfection set 2.
Assay [14] has as its target T12, recombinant homotrimeric HA, A/common magpie/Hong Kong/5052/07 H5N1 (Influenza A virus A/common magpie/Hong Kong/5052/07 (H5N1)). In words: trimeric HA microarray, transfection set 2.
For assay [15], the target named is T13, recombinant homotrimeric HA, A/Vietnam/1203/04 H5N1 (Influenza A virus A/Vietnam/1203/04 (H5N1)). In words: trimeric HA microarray, transfection set 2.
For assay [16], the target named is recombinant homotrimeric HA, A/Anhui/1/05 H5N1 (Influenza A virus A/Anhui/1/05 (H5N1)). In words: trimeric HA microarray, transfection set 2.
In assay [17] the target is T1, recombinant homotrimeric HA, …. As to the kind of experiment: trimeric HA microarray, transfection set 3.
The target in assay [18] is T2, recombinant homotrimeric HA, A/Hong …. In words: trimeric HA microarray, transfection set 3.
For assay [19], the target named is T3, recombinant homotrimeric HA, A/South …. In words: trimeric HA microarray, transfection set 3.
The target of assay [20] is T4, recombinant homotrimeric HA, …. As to the kind of experiment: trimeric HA microarray, transfection set 3.
Assay [21] has as its target T5, recombinant homotrimeric HA, A/northern …. As to the kind of experiment: trimeric HA microarray, transfection set 3.
Assay [22] has as its target T6, recombinant homotrimeric HA, …. As to the kind of experiment: trimeric HA microarray, transfection set 3.
Assay [23] addresses T7, recombinant homotrimeric HA, A/Solomon …. In words: trimeric HA microarray, transfection set 3.
In assay [24] the target is T8, recombinant homotrimeric HA, …. As to the kind of experiment: trimeric HA microarray, transfection set 3.
The target of assay [25] is T14, recombinant homotrimeric HA, A/swine/Ontario/01911-2/99 H4N6 (Influenza A virus A/swine/Ontario/01911-2/99 (H4N6)). In words: trimeric HA microarray, transfection set 3.
Assay [26] concerns the target T9, recombinant homotrimeric HA, …. In words: trimeric HA microarray, transfection set 3.
Assay [27] concerns the target T10, recombinant homotrimeric HA, …. In words: trimeric HA microarray, transfection set 3.
In assay [28] the target is T11, recombinant homotrimeric HA, A/Hong …. As to the kind of experiment: trimeric HA microarray, transfection set 3.
Assay [29] concerns the target T12, recombinant homotrimeric HA, A/common …. In words: trimeric HA microarray, transfection set 3.
For assay [30], the target named is T13, recombinant homotrimeric HA, …. As to the kind of experiment: trimeric HA microarray, transfection set 3.
Assay [31] concerns the target T14, recombinant homotrimeric HA, …. As to the kind of experiment: trimeric HA microarray, transfection set 2.

B1: TCN-563 (5237_B21) (antibody, V domains shown)
VH: QVQLAQSGAEVKRPGSSVKVSCTASGGIFRKNAISWVRQAPGQGLEWMGGIIAVFNTANYAQKFQGRVKITADESGNTAYMELSSLRSDDTAVYYCASHPKYFYGSGSYPDFWGQGTLVTVSS
VL: QSALTQPRSVSGSPGQSVTISCTGSSSDVGASNSVSWYQQHPGKAPKLVIYDVTERPSGVPHRFSGSKSGNTASLTVSGLQPEDEADYFCCAYGGKYLVVFGGGTKVTVL
Regarding B1, the Trimeric HA Binding RLU in [1] came out at 5420 RLU; in assay [2] it was 11200 RLU; in [3], 49200 RLU; in assay [4], 17800 RLU; in assay [5], 23700 RLU; in assay [6] it was 21900 RLU. In addition, the Trimeric HA Binding RLU worked out at 36300 RLU in assay [7]; 6280 RLU in assay [8]; 26500 RLU in assay [9]; 23900 RLU in assay [10]; 21200 RLU in assay [11]; 47300 RLU in assay [12]. For the same molecule, the Trimeric HA Binding RLU worked out at 364 RLU in [13], 52800 RLU in assay [14], 31500 RLU in [15] and 1570 RLU in assay [16].

B2: TCN-530 (5248_H10a) (antibody, V domains shown)
VH: QVQLVQSGAEVRKPGSSVKVSCKASGGPFMSYAIGWVRQAPGQGLEWMGGINPVFGRPHYAQKFQGRVTIATDDSTKTSYMELSSLTSEDTGMYYCASRYSRSSPGTFESWGQGTLVTVSS
VL: EIVMTQFPATLSVSPGERVTLSCRASQSVSNNLAWYQQKPGQPPRLLIYDASTRATGVPAKFSGTGSGTEFTLSISSLQSEDFAVYYCQQYHNWPPSYSFGLGTKLEIK
B2: the Trimeric HA Binding RLU in [17] came out at 5170 RLU; in assay [18], 10200 RLU; in assay [19] it was 17200 RLU; in assay [20], 3050 RLU; in [21], 23500 RLU; in [22], 18000 RLU. The Trimeric HA Binding RLU in [23] amounted to 13800 RLU; in [24], 25500 RLU; in [25], 123 RLU; in assay [26], 21200 RLU; in assay [27] it was 25500 RLU; in [28], 44 RLU. Moreover, the values for the Trimeric HA Binding RLU in assay [29] and in [30] were 5580 RLU and 25200 RLU, respectively.

B3: TCN-527 (5086_C06) (antibody, V domains shown)
VH: QVQLQESGPGLVKPSETLSLNCAVSGGSISNYYWSWIRQPPGKGLEWIGYISYNGRPKYNPSLTSRVTISVDTSKDQFSLELRSVTAADTALYYCARETRFGELLSPYDAFEIWGQGTMVTVSS
VL: DIQMTQSPSSLSASVGDRVTMTCRASQNIRSYLNWYQQRPGTAPKLLIYAASTLHSGVPSRFSGGGSGTDFTLTINNLQPEDFASYYCQQSYDNPQTFGQGTKVEIK
Regarding B3, the Trimeric HA Binding RLU was found to be 49100 RLU in assay [1]; 20800 RLU in assay [2]; 557 RLU in [3]; 48100 RLU in [4]; 35800 RLU in assay [5]; 19300 RLU in assay [6]. Moreover, the Trimeric HA Binding RLU in assay [7] is 20100 RLU; in assay [8], 17900 RLU; in [9], 19700 RLU; in [10] it was 23600 RLU; in [31], 30100 RLU; in assay [11], 21500 RLU. Further, the Trimeric HA Binding RLU in [12] stood at 23400 RLU; in assay [13], 25500 RLU; in assay [14], 43800 RLU; in assay [15], 20600 RLU; in assay [16], 15200 RLU.

B4: TCN-528 (5087_P17) (antibody, V domains shown)
VH: QVQLVQSGSEVKKPGASVKVSCKASGYTFTNYDINWIRQAPGQGLEWMGWINPNSGTTGSAQRFQGRVTITVDTSITTVYMELSSLRSDDTAIYYCARGRELLRLQHFLTDSQSERRDCFDPWGQGTLVTVSS
VL: DIQMTQSPSSLSASVGDRVTITCRANQDIGIYLNWYQQNPGKVPKLLLHGASSLQGGVPSRFSASGSGTDFTLTIHSLQPEDLATYYCQQSRRLPYTFGQGTRVELK
Turning to B4, the Trimeric HA Binding RLU in assay [1] came out at 47200 RLU; in assay [2], 23100 RLU; in [3], 322 RLU; in assay [4] it was 25200 RLU; in [5], 46000 RLU; in [6], 28400 RLU. In addition, the Trimeric HA Binding RLU was 22600 RLU in assay [7]; 19800 RLU in assay [8]; 26900 RLU in assay [9]; 36800 RLU in [10]; 49200 RLU in [31]; 44600 RLU in [11]. Besides, the Trimeric HA Binding RLU came to 39700 RLU in assay [12]; 33600 RLU in assay [13]; 45300 RLU in [14]; 23300 RLU in assay [15]; 21200 RLU in assay [16].

These data come from patent US20120207760A1.
